The record followed here is article PMC6101370.

For the assay, the target named is T1, histidine kinase EnvZ from Escherichia coli (Escherichia coli) (UniProt P0AEJ4).
T1 sequence (P0AEJ4 whole entry, looked up): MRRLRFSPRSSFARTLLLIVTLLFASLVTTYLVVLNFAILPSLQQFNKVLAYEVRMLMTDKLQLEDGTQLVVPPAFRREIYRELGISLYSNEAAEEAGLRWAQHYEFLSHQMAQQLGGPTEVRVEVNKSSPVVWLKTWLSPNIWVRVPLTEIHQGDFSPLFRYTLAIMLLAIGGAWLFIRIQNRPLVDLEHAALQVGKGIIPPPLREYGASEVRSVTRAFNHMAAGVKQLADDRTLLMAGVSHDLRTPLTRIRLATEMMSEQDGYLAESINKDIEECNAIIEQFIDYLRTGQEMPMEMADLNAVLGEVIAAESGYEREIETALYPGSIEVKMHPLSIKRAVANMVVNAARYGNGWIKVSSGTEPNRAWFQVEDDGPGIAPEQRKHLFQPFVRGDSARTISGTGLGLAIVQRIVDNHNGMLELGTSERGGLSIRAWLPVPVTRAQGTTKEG

B1: Spo0F M55L (natural protein)
chain: MMNEKILIVDDQYGIRILLNEVFNKEGYQTFQAANGLQALDIVTKERPDLVLLDLKIPGMDGIEILKRMKVIDENIRVIIMTAYGELDMIQESKELGALTHFAKPFDIDEIRDAVKKYLPLKSN
For the molecule B1, the in vitro phosphotransfer rate from EnvZ, ratio v (mutant) / v (w.t.) was determined as 1.

B2: Spo0F I108L (natural protein)
chain: MMNEKILIVDDQYGIRILLNEVFNKEGYQTFQAANGLQALDIVTKERPDLVLLDMKIPGMDGIEILKRMKVIDENIRVIIMTAYGELDMIQESKELGALTHFAKPFDLDEIRDAVKKYLPLKSN
Regarding B2, the in vitro phosphotransfer rate from EnvZ, ratio v (mutant) / v (w.t.) was 1.
